B1: Protein Bop (Homo sapiens), Q7L3V2 (parent)
chain: MPRGRCRQQGPRIPIWAAANYANAHPWQQMDKASPGVAYTPLVDPWIERPCCGDTVCVRTTMEQKSTASGTCGGKPAERGPLAGHMPSSRPHRVDFCWVPGSDPGTFDGSPWLLDRFLAQLGDYMSFHFEHYQDNISRVCEILRRLTGRAQAWAAPYLDGDLPLPDDYELFCQDLKEVVQDPNSFAEYHAVVTCPLPLASSQLPVAPQLPVVRQYLARFLEGLALDMGTAPRSLPAAMATPAVSGSNSVSRSALFEQQLTKESTPGPKEPPVLPSSTCSSKPGPVEPASSQPEEAAPTPVPRLSESANPPAQRPDPAHPGGPKPQKTEEEVLETEGDQEVSLGTPQEVVEAPETPGEPPLSPGF

Variants of: B1
Conditions: with vdac1_human VDAC1, P21796
Chain of vdac1_human VDAC1, P21796 (P21796 whole entry): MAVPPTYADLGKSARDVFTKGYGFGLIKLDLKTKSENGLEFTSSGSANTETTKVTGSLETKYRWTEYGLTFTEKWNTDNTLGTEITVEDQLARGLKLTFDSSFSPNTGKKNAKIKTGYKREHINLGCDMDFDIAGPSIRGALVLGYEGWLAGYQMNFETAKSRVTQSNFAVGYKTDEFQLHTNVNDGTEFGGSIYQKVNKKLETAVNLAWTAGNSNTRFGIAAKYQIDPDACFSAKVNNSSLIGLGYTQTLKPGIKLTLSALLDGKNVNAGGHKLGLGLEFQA
MPRGRCRQQGPRIPIWAAANYANAHPWQQMDKASPGVAYTPLVDPWIERPCCGDTVCVRTTMEQKSTASGTCGGKPAERGPLAGHMPSSRPHRVDFCWVPGSDPGTFDGSPWLLDRFAAQLGDYMSFHFEHYQDNISRVCEILRRLTGRAQAWAAPYLDGDLPLPDDYELFCQDLKEVVQDPNSFAEYHAVVTCPLPLASSQLPVAPQLPVVRQYLARFLEGLALDMGTAPRSLPAAMATPAVSGSNSVSRSALFEQQLTKESTPGPKEPPVLPSSTCSSKPGPVEPASSQPEEAAPTPVPRLSESANPPAQRPDPAHPGGPKPQKTEEEVLETEGDQEVSLGTPQEVVEAPETPGEPPLSPGF [L118A] was tested, and the “effect of a mutation on the interaction” value was “decreasing interaction strength”.
